{"source": "patent US5786324A", "about": "“Synthetic peptides with bactericidal activity and endotoxin neutralizing activity for gram negative bacteria and methods for their use” (priority 1994, dated 1998)", "key": {"P. cepacia ATCC 25608": {"test_system": "P. cepacia ATCC 25608", "assay": "Bactericidal assay, P. cepacia", "format": "cell-based, Pseudomonas cepacia", "settings": "for % Killing of 5 × 10^6 Bacteria: P. cepacia, 4.1 × 10^-9 M", "procedure": "(§1) The synthetically produced peptides were assayed for bactericidal activity against Pseudomonas aeruginosa, type 1, P. cepacia ATCC 25608, E. coli B, and Staphylococcus aureus 502A by standard methods.\n(§2) Pseudomonas aeruginosa type 1 is a clinical isolate maintained in the laboratory since 1972. The isolate remains a smooth strain and was serotyped by the scheme of Homma. Homma, Jpn. J. Exp. Med., 46:329 (1976). A rough strain E. coli B and S. aureus 502A were obtained from Paul Quie, University of Minnesota. The characteristics of the S. aureus strain have been described in Shinefield et al., Amer. J. Dis. Chil., 105:646 (1963). Pseudomonas cepacia ATCC 25608 was purchased from the American Type Culture Collection in 1980. S. aureus and E. coli were maintained on nutrient agar plates and the Pseudomonas strains were maintained on blood agar plates.\n(§3) Pyrogen-free solutions were used throughout this assay and all methods which follow. Log phase bacteria were prepared from a culture in brain heart infusion broth as previously described except that bacteria were washed and resuspended in saline with adjustment to an optical density at 650 nm which would yield 3×10^8 CFU/ml. Bacteria were then diluted 1:10 in 0.08M citrate phosphate buffer, pH 5.6 or pH 7.0, for use in the assay. S. aureus rapidly lost viability in the pH 5.6 buffer and was studied only at pH 7.0. Bactericidal activity was determined by dose response and where an LD50 is indicated, it was determined by linear regression."}, "E. coli B": {"test_system": "E. coli B", "assay": "Bactericidal assay, E. coli B", "format": "cell-based", "procedure": "as §1, §2, §3"}, "E. coli 055: B5 LPS": {"test_system": "E. coli 055: B5 LPS", "assay": "Limulus amoebocyte lysate assay, neutralization of endotoxin", "format": "biochemical", "source_text": "The peptide selected can also have endotoxin neutralizing activity. […] Endotoxin neutralizing activity can also be measured by calculating an inhibitory dose 50 […] using standard does response methods. An inhibitory dose 50 is that amount of peptide that can inhibit 50% of the activity of endotoxin. Endotoxin activity can also be measured by determining the amount of release of tumor necrosis factor alpha (TNFα) from a macrophage cell line or by evaluating the symptoms of shock in animals. Peptides preferably neutralized endotoxin at a molar concentration of about 1×10^-4 M to about 10^-8 M , more preferably about 10^-5 M to about 10^-6 M .\nThe ability of synthetic peptides to neutralize endotoxin was detected with the E-TOXATE kit manufactured by Sigma Chemicals, St. Louis, Mo. […] Peptide was incubated with LPS at room temperature for 10 minutes in 100 μl of a 1:2 dilution of pyrogen-free saline, pH 6.4. The reaction was started by addition of 100 μl of amoebocyte lysate and the final volume was 200 μl.\n^a The dose of peptide required to inhibit clotting of LAL by 100%.\nEach tube contained 0.04 endotoxin units of E. coli LPS."}, "[1]": {"assay": "Storage stability of bactericidal activity of B/PI in elution buffer", "format": "physicochemical", "settings": "0.05M glycine buffer, pH 2.5, with 0.5M NaCl; 4° C. and -70° C.; prolonged periods", "procedure": "Recombinant products can be purified from infected cells by immunoaffinity chromatography with the appropriate immobilized rabbit anti-peptide antibody or a mouse monoclonal antibody to B/PI. B/PI was reproducibly purified by application of partially purified samples of 2 mg protein to a 1.5×180 cm Toyopearl HW55S (Toso Haas) column or 200 mg protein to a TSX2000 HPLC (Beckman) column. The elution buffer for both columns is 0.05M glycine buffer, pH 2.5, with 0.5M NaCl. Recovery of B/PI protein was excellent and 100% of bactericidal activity is retained. The bactericidal activity of B/PI in this buffer was stable at 4° C. and at -70° C. for prolonged periods. The columns resolve protein standards over the range of 2-70 kD and can be used for all steps separation of fragments of B/PI by molecular weight. Reverse phase HPLC can be used if necessary."}, "[2]": {"test_system": "Pseudomonas aeruginosa type 1", "format": "cell-based", "settings": "for % Killing of 5 × 10^6 Bacteria: P. aeruginosa", "procedure": "Bactericidal activity can be evaluated against a variety of bacteria such as Pseudomonas spp including aeruginosa and P. cepacia, E. coli B, and Staphylococcus aureus. The preferred organism is P. aeruginosa. Bactericidal activity is determined by identifying the effective dose for killing as the molar concentration of the peptide which results in at least a 60% killing of the bacteria, as determined by standard methods. Preferably, the peptide has an effective dose at a concentration of about 1×10^-4 M to about 1×10^-10 M, and more preferably 1×10^-7 M to 1×10^-9M . […] The effective dose for bactericidal activity of B/PI is seen at about […] . Bactericidal activity can also be determined by calculating a lethal dose 50 (LD50) using standard methods. The LD50 is that amount of peptide or protein that kills 50% of the bacteria when measured using standard dose response methods. A bactericidal peptide preferably has an LD50 of about 10^-4 M to about 10^-9 M , more preferably about 10^-7 to 10^-9 M .\nas §1, §2, §3"}, "[3]": {"test_system": "Staphylococcus aureus 502A", "format": "cell-based", "settings": "S. aureus; pH 7.0; 4.1 × 10^-9 M", "procedure": "as §1, §2, §3"}, "[4]": {"settings": "Table 7, dose required to inhibit clotting of LAL by 100%, 0.04 endotoxin units of E. coli LPS"}}, "note": "“Also recorded” adds a separate entry of the source. Like-named read-outs stand apart in the source and are kept apart here."}
{"molecule": "B/PI: 55 kD bactericidal/permeability increasing protein purified from human neutrophil granules (protein) MRENMARGPCNAPRWVSLMVLVAIGTAVTAAVNPGVVVRISQKGLDYASQQGTAALQKELKRIKIPDYSDSFKIKHLGKGHYSFYSMDIREFQLPSSQISMVPNVGLKFSISNANIKISGKWKAQKRFLKMSGNFDLSIEGMSISADLKLGSNPTSGKPTITCSSCSSHINSVHVHISKSKVGWLIQLFHKKIESALRNKMNSQVCEKVTNSVSSKLQPYFQTLPVMTKIDSVAGINYGLVAPPATTAETLDVQMKGEFYSENHHNPPPFAPPVMEFPAAHDRMVYLGLSDYFFNTAGLVYQEAGVLKMTLRDDMIPKESKFRLTTKFFGTFLPEVAKKFPNMKIQIHVSASTPPHLSVQPTGLTFYPAVDVQAFAVLPNSSLASLFLIGMHTTGSMEVSAESNRLVGELRLDRLLLQLKHSNIGPFPVELLQDIMNYIVPILVLPRVNEKLQKGFPLPTPARVQLYNVVLQPHQNFLLFGADVVYK", "values": [{"measurement": "% Killing of 5 × 10^6 Bacteria", "setting": "P. cepacia ATCC 25608; pH 5.6", "value": 0, "unit": "%"}, {"measurement": "% Killing of 5 × 10^6 Bacteria", "setting": "P. cepacia ATCC 25608; pH 7.0", "value": 0, "unit": "%"}, {"measurement": "killing of P. cepacia (in words)", "setting": "P. cepacia ATCC 25608; concentration 20fold higher: 9.1×10^-8 M, approximately 5 μg protein/ml", "value": "not killed; also recorded: resisted bactericidal activity"}, {"measurement": "% Killing of 5 × 10^6 Bacteria", "setting": "E. coli B; E. coli B, pH 5.6, 5.5 × 10^-9 M", "value": 71, "unit": "%"}, {"measurement": "% Killing of 5 × 10^6 Bacteria", "setting": "E. coli B; E. coli, pH 5.6, 4.1 × 10^-9 M", "value": "35 ± 4", "unit": "%"}, {"measurement": "% Killing of 5 × 10^6 Bacteria", "setting": "E. coli B; E. coli, pH 7.0, 4.1 × 10^-9 M", "value": "25 ± 5", "unit": "%"}, {"measurement": "peptide concentration which neutralized endotoxin (100% inhibition of LPS-induced gelation)", "setting": "E. coli 055: B5 LPS; 0.04 endotoxin units of E. coli 055: B5 LPS", "value": "about 10^-8 M"}, {"measurement": "Effective Dose (μg/0.2 ml)", "setting": "E. coli 055: B5 LPS; [4]", "value": 0.165, "unit": "μg/0.2 ml"}, {"measurement": "Effective Dose M (× 10^-4)", "setting": "E. coli 055: B5 LPS; [4]", "value": "0.00015 M (× 10^-4)"}, {"measurement": "stability of bactericidal activity on storage", "setting": "[1]", "value": "stable"}, {"measurement": "LD50 for P. aeruginosa", "setting": "[2]; 5×10^6 CFU, pH 5.6, dose response, linear regression", "value": 3.4, "unit": "nM"}, {"measurement": "% Killing of 5 × 10^6 Bacteria", "setting": "[2]; pH 5.6, 4.1 × 10^-9 M", "value": "50 ± 5", "unit": "%"}, {"measurement": "% Killing of 5 × 10^6 Bacteria", "setting": "[2]; pH 5.6, 5.5 × 10^-9 M", "value": "87 ± 8", "unit": "%"}, {"measurement": "% Killing of 5 × 10^6 Bacteria", "setting": "[2]; pH 7.0, 4.1 × 10^-9 M", "value": "35 ± 3", "unit": "%"}, {"measurement": "% Killing of 5 × 10^6 Bacteria", "setting": "[3]", "value": 0, "unit": "%"}]}
